Assay: label from the status in PepcDB records
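Note: failed if final PepcDB status was selected cloned or expressed and not failed if soluble or beyond.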

| Sequence | protein production |
| --- | --- |
| MAELEAVADDLDALIDDLDYLPGHFHLEMQLNFEPRSPAPQRARDLKLQREGLRQELQLAAAPQRPAVRHLLGAFAFYLEELDEARECFLEVAHEHPGNLNAWANLAHVYGRLGQEEEEEACAARLADLMGLAEEPEAAGDPQLRAARCLAEQGYAHGFDVGCASPEERARGLAAGIALYDKALGYGQQIPMEEKRGWYFTMATLYIRLDGIFLELGSEEQKRLPAFNRTLALLRQVLKSEDPRHRALAWCYLGMLLERKDTFSTTPMGVHDCGYSGTDPLDCFGKAIEIAKNQPPILNRLAKIFYFLGKQDMAIGTCNMALDVLRDPELNWQAYCTRAKIHIRAYLHDLKRAKMGLGGMPDRNHLACAKADLEEVVRVCPGFKAYLDIGQVYYYMGVDAVQELLAVDEAALNQALVFLAKAGESELGATLPELQLLRGKCLRIKGEDANAAACFKRAVELDDAGSSHTDGFGCLLEALLAQWSQAQLSDGELGREVDAWLRRAQDKYPAARLRQELQRVWRGHTDEVLGLARALVAQGRPALVRLLFETMEREGEGASAPRDRRAVSF | failed |
| MSLQESSLVLSNGLGFVDTPYKAGTLEVDDTEDLIINCDEVDCTTFVEYALAMALCPQQGDEMQEGDFARNLQRIRYRDGKIDGYTSRLHYISDWINNAVRQGLLEDVTAAYSPFKQKLSLSYMSTHPELYKSLKNSPENVAQMAKYEKALSGKEVHYLPKDKLEPDGLPWIKNGDIIALTTNTPGLDVSHMGIAIYIKGQLHLLHASSKEGKVVVGKTALSQMLKDRKSLTGIRVLRMKKEGHHHHHH | not failed |
| MSSRWEGIDEFVAVAESGQFTAAAERLGVSSSHISRQIARLEDRLQTRLLYRSTRRVTLSEAGQTFLQHCQRLQDGREEALRAMGDLASEPKGLLRMTCAVAYGERFIVPLVTRFMALYPQLRVDVELSNHTLDLLHEGMDLAIRLGRLADSRLVATRLAPRRMYLCVSPAYLERYGRPHSLSELARHNCLVGSSDLWALQQDGREISQRVQGNWRCNSGQAVLDAALQGIGLCQLPDYYVLEHLNSGALVSLLEAHQPPNTAVWALYPQQRHLSPKVRRLVDYLKEGLAGLPEYRFG | failed |
| MGEEEMPVHPDLEAFIESIPWHRHLGLKVLALHPGHARLVIPFQAGFTGNAARGALHGGIIASLADSCGNAALWTHFGPDDRIATINIGVDYFRPAPLADLMAEAEVRLLGNRIGNVHVRLAPLAEPSQTVAEGRTVCYVKRMSLEHHHHHH | failed |
| ARHPQRVVAAILVAPASPESFSENGHILPEHDDTPTIRNLLPKQTLGICGLVIASENDPWMPFNQAASLAKSFGLPTINLGLSGHINVDSGHGQWPLIDVLVGNFL | failed |
| NAEKVALAKKVADESAVLLENRNDILPLDLNKYKSVAVVGPNSNQAVLGDYAWTMGDTKEAVSLLQGLQESAGDKIMIRHAEGCDWWSQDKSHIAEAVEVVRNSDIAVVAVGTRSTYLGRSPKYSTAGEGFDLSSLELPGVQEELLKEIKKTGKPMIVVLIAGKPLAMPWVKENADALLVQWYAGEQQGCTLADILLGKVNPSGKLNVSFPRSTGNTPCFYNHFVTDREEPFDQPGTPEEPKGHYIFDKPEPLWNFGHGKSYTTFDYVD | failed |
| MMEERAAAAVASAASSCRPLGSGTAPNPTAAAPASSPAPGPGPVGKGGGGGGSPGPTAGPEPLSLPGILHFIQHEWARFEAEKARWEAERAELQAQVAFLQGERKGQENLKTDLVRRIKMLEYALKQERAKYHKLKFGTDLNQGEKKTDLSEQVSNGPVESVTLENSPLVWKEGRQLLRQYLEEVGYTDTILDMRSKRVRSLLGRSLELNGAGEPVEGAPRASPGPGGLSGGESLLVKQIEEQIKRNAAGKDGKERLGGSVLEQIPFLQNCEDEDSDEDDELDSVQHKKQRVRLPSKALVPEMEDEDEEDDSEDAINEFDFLGSGEDGEGSPDPRRCTSEGNPHELESRRVKLQGILADLRDVDGLPPKVTVPPPGTPQPRPHEGSFGFSSDVFIMDTIGGGEVSLGDLADLTVTNDNDLSCDLSDSKDAFKKTWNPKFTLRSHYDGIRSLAFHHSQSALLTASEDGTLKLWNLQKAVTAKKNAALDVEPIHAFRAHRGPVLAVTMGSNSEYCYSGGADARIHSWKIPDLNMDPYDGYDPSVLSHVLEGHGDAVWGLAFSPTSQRLASCSADGTVRIWDPSSSGPSCLCTFPMDGEHGIPTSVAFTSTEPAHVVASFRSGDTVLYDLEAGSALLTLESRGSSGPAQINQVVSHPSQPLTITAHDDRGIRFLDNRTGKSVHSMVAHLDAVTCLAVDPNGVFLMSGSHDCSLRLWSLDNKTCVQEITAHRKKHEEAIHAVACHPSKALIASAGADALAKVFV | failed |
| MMQVQYIIWLSCCFKRMNKDREFTESKTIKQNTKMKKRILGAALLVAIAVAAGWNYNQSRNEVPLSDLALANAEALAQGETDWGNCTYYGCIVDFSSTCNVYSSIWGNLIKVCPNMRG | failed |
| MRVLPLLLLIYPFAEIAALVALADRIGGLAVFLLVLLSSMLGLWMLRNQKLGALLTLGSVMRQGDKVSLYSLLWPLRYALAGLLFLLPGLLSDVAAVLLLLPLKGPDISLRATGAGPAAGPAGGSDIIEGEFSRVDETTPPGRRIQ | failed |
| MLNKVLTHLDENIEKSLERLFSLLRFQSISTDFAYKDECRKAADWLVEDLKSIGFKASRRDTSGHPMVVGHHPGPSDDCLHVLFYGHYDVQPVDPLNLWEDDPFTPSLKEREGEKVICARGASDDKGQLMTFIEACRAFKKETGQLPVRVTVLFEGEEESGSSSLVPFLKANKDELKADCALVCDTSMWDADTPSVSVALRGILGEEIIITAANRDLHSGYFGGAAANPIRILTKVLAGLHDENNRVTLPGFYDGVEETPPHILQSWNALNCTAENFLGPIGLSLPAGEKGRSVLELVWARPTAEINGISGGYEGEGIKTVIASQASAKVSFRLVHKQDPEKIRQAFRDYVCSLIPADCSVVFKEHGASPAIQLPYDSPFIKATKDALSQEWNNPALLTVMGGSIPIVADFQSILDMETLLVGFALADDRIHSPNEKYNLKSFHKGQRSWARILATLAKTGG | not failed |
| MAIPGNMWIYDDGGALIKGGCDVADREFSIEFKGFHHNLSIPTDHATGKPTGTRQHSPMIIVKEFDYSSPYLYKAVATGQNLKSAEIKWYKISDAGQEVEYFNMLLEGVRIVSISPTMASPEDKNNNHLESVELRYEKITWKHCDGNIIFTDAWNERQTA | not failed |
| MQLEVILPLVAYLVVVFGISVYAMRKRSTGTFLNEYFLGSRSMGGIVLAMTLTATYISASSFIGGPGAAYKYGLGWVLLAMIQLPAVWLSLGILGKKFAILARRYNAVTLNDMLFARYQSRLLVWLASLSLLVAFVGAMTVQFIGGARLLETAAGIPYETGLLIFGISIALYTAFGGFRASVLNDTMQGLVMLIGTVVLLIGVVHAAGGLSNAVQTLQTIDPQLVTPQGADDILSPAFMTSFWVLVCFGVIGLPHTAVRCISYKDSKAVHRGIIIGTIVVAILMFGMHLAGALGRAVIPDLTVPDLVIPTLMVKVLPPFAAGIFLAAPMAAIMSTINAQLLQSSATIIKDLYLNIRPDQMQNETRLKRMSAVITLVLGALLLLAAWKPPEMIIWLNLLAFGGLEAVFLWPLVLGLYWERANAKGALSAMIVGGVLYAVLATLNIQYLGFHPIVPSLLLSLLAFLVGNRFGTSVPQATVLTTDK | failed |
| MRSFLKRTQCAQLRSTPSLIFSTGITHPAETALQRFKFLMYQVVASDLDGTLLSPDHTLSPYAKEPLKLLTARGINFVFATGRHHVDVGQIRDNLEIKSYMITSNGARVHDLDGNLIFAHNLDRDIASDLFGVVNDNPDIITNVYRDDEWFMNRHRPEEMRFFKEAVFKYALYEPGLLEPEGVSKVFFTCDSHEQLLPLEQAINARWGDRVNVSFSTLTCLEVMAGGVSKGHALEAVAKKLGYSLKDCIAFGDGMNDAEMLSMAGKGCIMGSAHQRLKDLHPELEVIGTNADDAVPHYLRKLYLS | failed |
| MIESVLLLVSGLPGSGKSTLARGMAEALAWPCLDKDDFLEALFDARGIGDAAWRRALSREADSRFLAALQAAPRAVACSWWRHPRGEGGSGTPIGGLARPGRLVLELHCRCPAELAAARFARRVRHPGHLDAQRDPGALSLQLRRAERLGPLGLGQCLILDASVQTDLSGALAWTRDALAAGALADPPRHPLEHHHHHH | failed |
| MEKHSHEHHHHHDISSISKNKLFFVIIFNFIIALAEVIGGSISGSLSLISDALHNLSDTASLILSYVSIKISEKPKNKAKTYGYKRANILAAFINSAALIGISIFLGVQALEKLTSLKKINANIVIVVALIGLLGNFLSVIILKKGAEKSLNVRSSYLHMLSDAMASLAVIISGVFIKYFAIYWIDSVLTIFINMLILKSSYNILKESINILMQTTPVNLDMDDVKEQLLKIKEIKGVHHFHIWTLDENNIVLEGHIEIDDILVSETRAISDKIEHILNEDFHITHVVIQFESTSCEDNICKI | failed |
| MRQVTVGGMRVDLVSEIASLAFDKSWLFANVTDAVIAENRSWLDHRYIEPATGRFILSHHSYLVRAPRWTAIVDTCCGNHKKRPRVPVWNDLNQPYLENMRALGVAPEEVDFVMCTHLHVDHVGWNTRLLDGRWVPTFPNARYLMGREEYRHFEAAHNAAPKSPVNHGSFEDSVLPVVAAGLAEFVETDHRLFEDRDAALRFAPAPGHTAGNMQIHLNGGHDHAVMSGDVIHHPIQCAAPWLSNAADVDPAAAVATRMALLEELADTPSYLLTGHFPAPTAGRVIRHGDTYRFRFED | failed |
| MDSGESGPQQWAGVVKVNDRMGYVTFTDAAGTELIPTNTIPVTLNARMAYIYCQVDEGQDLSTNPKSIKITLLADPTGIDATAITTPKVGESGDVTTNAPVGSLSFVSGYSTVAPFQFSENTIVLPVLYRVKNVTTTEDIKNELAKHTFTLVCYTDDIKSGDTILKLYLRYKVEDEPAAIAERATRTSSFKAYEISQILREYTLKSGQTKPAKITIVAQQNEYNNKLEDTSTIEKVYEIEYKTAE | not failed |
| STHKLIRQDNSELIYYLDKQAEHNKTLLVLMQGSDCNSIKNNTFIQETFGRWLPSSDVLMVEKYGITAQLTYSDDNGEREDCPKNYKLHDNPNQRLADYLAVLDKLSPNYTNIVLLGGSEGATMVHLVVAERHDISAAIALNGGGRFFLDDVLYNIRNTTPKEHVEEAINSFQQLANAIITNQIGDEQFVSEHSKLWWQQYLAIDLLEVIKRNTQTPVLIVQTLDDINVDVAAFHQLSQEITQPNVTFIKYDKLNHGFYNQQGERLTGKVVQDIQQWYAQYNK | not failed |
| MKLDLARKRPSLLARLWLRLGALLGRTLLLLLVIGLLGWALSSAWFAWHHRGPVAVQEQVPADEAARTQDIIQTAVRIVDQHREGTRYLRDAHAKAHGCVKAQVQVLNDLSPPLRQGVFATPGQTWQAVVRLSNGNAYPQFDSIRDARGMAIKLLDVPGQQLMASESQRREQDFVMFNHPNFFVSDVAEYQQNIAAQADGKKVGAFFPGWDPRTWQVRHLFIALATLSPAPASPTQTTYYSVSPYKFGNANAKFRVMPDPESCPAYSLPAQNQDLPNFLRSALTQQLSTDRVGACFVLQVQRQDPNRFMPIEDTSIEWKESDAPFETVARVTLPAQDFDTPAQNLACDNQSFNPWFGLEAHRPIGGINRLRKAVYEAVSDYRHSRNAEQ | failed |
| MIIDINRLDRAFDLIKEGVSKGVFPGAVAAVGTRERVIRLESFGNRCLYPEKLSMNKDTLFDLASLTKVVATNTLFMIFLEKGLISVYDNVSYYLEKFKGKNKDDVTIFNLLTHTAGFVPCKPLYKLCKGYEDSIDYICRCGLSYKPGTKCVYSDFSYILLAYILEKIGGDTLDILCDRYIFKPLYMENTTFKPKGNNIAATEIDKKTKKPLIGVCHDENGRFFGGISGHAGLFSDIYDLCKFSNMLVNEGKGIISYASFKAMTTNHTLGLEDNRGYGWCIKGDKNSFMGDIAFPETFGHNGFTGTSLWVDIKNNIYAILLTNRVHPTRDNLRIIRFRRVFSNAVLASLTRLEHHHHHH | failed |
